Patent US20250042974A1, “LIPID MEDIATOR CHAPERONE AND USES THEREOF” (The Children's Medical Center Corporation, priority 2021, published 2025)
“Also recorded” adds a separate entry of the source. Each block holds one molecule with its values, some of them ahead of it.

Columns and labels:
HUVEC = assay: TEER analysis of endothelial barrier function; assay type: cell-based, human; conditions: HUVEC; S1P 10-300 nM, A1M 0.8-24 μg/ml; unloaded controls up to 24 μg/ml
Description: Transendothelial Electrical Resistance (TEER) was performed on HUVEC as described previously (Swendeman et al, 2017). Essentially, HUVECs were maintained in HUVEC Growth Medium (HGM; M199 medium supplemented with 10% FCS (Corning), 1:100 Pen-Strep (Sigma), 8 mM Glutamine (Sigma), Heparin (Sigma, 100 U, LMW) and Sheep Brain Extract prepared (REF). All cultures were maintained on Fibrobronectin (2 μg/ml) coated plates. For TEER analysis a 96 well ECIS system (96W10idf PET array, Applied BioPhysics) was employed. Wells were coated with Fibronectin (2 μg/ml) resuspended in saline for 30 minutes at room temp. HUVECs were harvested, resuspended in HGM at a cell density of 25-30×10^3 cells/well and allowed to adhere overnight. Prior to analysis, culture media was removed and replaced with M199 media supplemented with Pen-Strep/Glutamine and 1% FCS for 30 minutes. For stimulation studies, either Iloprost (Cayman Biochemicals) or Iloprost loaded onto ApoA1 or ApoA1-ApoM chaperones, or S1P prepared on ApoA1-ApoM or ApoM-Fc chaperones were added to cultures and TEER studies were performed from 3-24 hours.

NF-κB = assay: TNFα-induced NF-κB luciferase reporter assay in HMEC; assay type: cell-based, human
Description: TNFα-dependent NF-κB signaling was determined by using an NFκB-Luciferase based reporter assay system (pGL4.32[luc2P/NF-κB-RE/Hygro]; Promega). A stable NFκB reporter cell line in human microvascular endothelial cells (HMEC-1; ATCC) was created. HMEC were maintained in 10% FCS/Pen-Strep MCDB media supplemented with 2 mM L-Glutamine (Sigma), EGF (2 ng/ml; R&D systems) and Hydrocortisone (1 ng/ml; Sigma). […] The 5×10^5 reporter cells were distributed to 12 well plates and allowed to adhere for 24 hours. Media was replaced with MCDB media supplemented with 1% FCS, L-Glutamine. […] Samples were extracted using cell lysis buffers (Promega), luciferin substrate was added and the plates were measured for […] at 470 nm for 8-15 minutes in a SpectraMax L 96-well plate reader (Molecular Devices).

ICAM-1 = assay: TNF-α-induced ICAM-1 expression in HUVEC (western blot); assay type: cell-based, human; conditions: 10 min pretreatment, TNFα 10 ng/ml 5 hours, 200 μg/ml
Description: HUVECs were plated as described above. After 24 hours cells were shifted to M199 media supplemented with 1% FCS, 8 mM Glutamine, 1× Pen-Strep. After 30 minutes, cells were pretreated for 10 minutes with media, ApoM-Fc-S1P (100 nM S1P), Iloprost (100 nM), ApoA1-ApoM (200 μg/ml), ApoA1-ApoM-Iloprost (200 ug/ml; 100 nM Iloprost) or ApoA1-ApoM-S1P (200 μg/ml 100 nM S1P) or in combinations and subsequently treated with TNF-α (10 ng/ml). After 5 hours, cells were lysed with cell lysis buffer (TBS-T; 20 mM Tris-pH8, 160 mM NaCl, 1% Triton, 1× protease inhibitor cocktail (Sigma)), collected and centrifuged at 20,000×g for 5 minutes at 4° C., extracts were analyzed by 10% SDS-PAGE, transferred to nitrocellulose membrane (Bio-Rad), blocked in 5% milk, and probed with antibodies to ICAM-1 (1:1000, sc-8439, Santa Cruz Biotech) and Actin (1:5000, sc-8432, Santa Cruz Biotech). Blots were developed with appropriate secondary antibodies linked to HRP and visualized by chemiluminescence (Immobilon Western, EMD Millipore) using a ChemiDoc Imaging (Biorad).

Neutrophils = assay: fMLP-dependent neutrophil ROS generation; assay type: cell-based, mouse; conditions: ApoM-S1P 100 nM S1P, ApoA1-Iloprost 160 nM drug, area under the curve
Description: Peritoneal Neutrophils were isolated from C57Bl/6 mice after thioglycolate elicitation. Thioglycolate (2 ml of 2% v/v) resuspended in water was administered by intraperitoneal injection. After 4 hours, mice were euthanized and 5 ml of HBSS was injected intraperitoneally, the abdomen was messaged for 1 minute and the peritoneal fluid was removed. The resulting cells were pelleted, RBCs were lysed with ACK buffer, re-pelleted and resuspended in PBS-glucose. Cells were counted, 5×10^5 cells were dispersed into 96 well clear bottom plates containing luminol 100 mM and 10 U/ml of horseradish peroxidase and read for blank background. F-Met-Leu-Phe (fMLP; 10 μM) was added and plates were read on a SpectraMaxL1 (Molecular Devices, San Jose, CA) over 5 minutes as described previously. The area under the curve was calculated by using GraphPad Prism 7 (GraphPad Software, San Diego, CA).

inhibition of TNFα-induced NF-κB activity at higher doses (NF-κB; 100-400 μg/ml, bi-phasic dose-response): not as inhibitory
inhibition of TNFα-induced NF-κB activity (NF-κB; low doses 25-50 μg/ml): ~25%
B1: A1M: recombinant fusion protein of Apolipoprotein A1 and Apolipoprotein M with GGGGS linker and 6x His tag (SEQ ID NO: 23) (protein)
chain: MKAVVLAVALVFLTGSQAWHVWQQDEPQSQWDKVKDFANVYVDAVKDSGRDYVSQFESSSLGQQLNLNLLENWDTLGSTVSQLQERLGPLTRDFWDNLEKETDWVRQEMNKDLEEVKQKVQPYLDEFQKKWKEDVELYRQKVAPLGAELQESARQKLQELQGRLSPVAEEFRDRMRTHVDSLRTQLAPHSEQMRESLAQRLAELKSNPTLNEYHTRAKTHLKTLGEKARPALEDLRHSLMPMLETLKTKAQSVIDKASETLTAQTRTRPLGGGGSNQCPEHSQLTALGMDDTETPEPHLGLWYFIAGAASTTEELATFDPVDNIVFNMAAGSAPRQLQLRATIRTKSGVCVPRKWTYRLTEGKGNMELRTEGRPDMKTDLFSSSCPGGIMLKETGQGYQRFLLYNRSPHPPEKCVEEFQSLTSCLDFKAFLVTPRNQEACPLSSKHHHHHH
enhancement of endothelial barrier function (TEER) (HUVEC): no functional barrier protection; also recorded: did not induce endothelial barrier enhancement
inhibition of TNFα-induced ICAM1 expression (ICAM-1): inhibiting downstream inflammatory ICAM1 expression

B2: ApoM-S1P: ApoM-bound S1P as named in FIG. 6 results; chaperone form not specified (protein, UniProt O95445 1-188, looked up)
Apolipoprotein M: MFHQIWAALLYFYGIILNSIYQCPEHSQLTTLGVDGKEFPEVHLGQWYFIAGAAPTKEELATFDPVDNIVFNMAAGSAPMQLHLRATIRMKDGLCVPRKWIYHLTEGSTDLRTEGRPDMKTELFSSSCPGGIMLNETGQGYQRFLLYNRSPHPPEKCVEEFKSLTSCLDSKAFLLTPRNQEACELSNN
modifications: bound S1P
notes: chaperone form not specified
inhibition of neutrophil ROS generation (Neutrophils): ~42%
